Reference: patent publication US20220267458A1 (Innovent, published 2022)
Where a chain is given by its changes, count along the chain named. Values belong to the binder of their own block, whether it stands above or below them.

Columns and labels:
[1] = target: T1, human GITR-His (human, UniProt Q9Y5U5 26-161); experiment: ForteBio BLI, antibody on AHQ tip, human GITR-His 100 nM in solution, 1:1 model
T1 construct: Bought from Acro biosystems; also called GITR-His (Acro biosystems); antigen GITR-His
T1 sequence: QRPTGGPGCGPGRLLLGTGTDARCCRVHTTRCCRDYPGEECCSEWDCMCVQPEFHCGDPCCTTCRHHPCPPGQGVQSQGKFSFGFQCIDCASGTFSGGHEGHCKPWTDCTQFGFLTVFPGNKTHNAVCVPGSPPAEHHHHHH
Method: (§1) (2) Experimental procedure: 100 μl of SD buffer and antibodies (hcIgG-02, hcIgG-03, hcIgG-04, hcIgG-07, hcIgG-09, hcIgG-10, hcIgG-16 and hcIgG-20, control antibody), GITR-His (Acro biosystems) were added to a 96-well half-volume black polystyrene microplate. The plate was arranged according to the positions of the samples, the position of the sensor was selected, and the operation procedures were set as: Baseline, Loading ˜1 nm, Baseline, Association and Dissociation, each running for a time depending on the binding and dissociation rates of the sample, at a rotation speed of 400 rpm and a temperature of 30° C.
(3) A 1:1 binding model was adopted for kinetic analysis.

[2] = target: T2, human GITR overexpressed on CHO cells (CHO-GITR) (human, UniProt Q9Y5U5 26-241); experiment: flow cytometry on CHO-GITR cells, PE anti-human Fc detection, MFI; direct binding titration, the table row is labelled IC50, nM is taken from the concentration axis
T2 construct: whole, on cells; also called cell surface GITR protein; antigen expressed on the cell surface
T2 sequence (looked up): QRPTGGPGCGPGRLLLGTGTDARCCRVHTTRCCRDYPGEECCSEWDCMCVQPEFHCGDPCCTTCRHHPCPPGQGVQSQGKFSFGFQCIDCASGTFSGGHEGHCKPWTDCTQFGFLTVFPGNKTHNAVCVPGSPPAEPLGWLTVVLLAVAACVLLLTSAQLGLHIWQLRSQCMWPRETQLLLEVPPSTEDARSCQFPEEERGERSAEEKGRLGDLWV
Method: (1) Cell preparation: The pCHO1.0 vector (Invitrogen) carrying human GITR cDNA cloned to a multiple cloning site (MCS) was transfected into Chinese hamster ovary cancer cells (CHO) (Invitrogen) to produce human GITR-overexpressing CHO cells (CHO-GITR), the CHO cells (CHO-GITR) overexpressing human GITR on the surface thereof were counted, and diluted to 1×10⁶ cells/mL, and added to a U-bottom 96-well plate with 100 μL/well.
(1) Detection: The cell suspension was centrifuged at 400 g for 5 min to remove the cell medium. Serial dilutions of the sample were added to a U-shaped plate, and then the cells were resuspended and added to the plate with 100 μL/well. The plate was put onto the ice to stand for 30 min The cell suspension was centrifuged at 400 g for 5 min, and the supernatant was discarded. The cells were washed once with PBS, and then centrifuged at 400 g for 5 min to remove PBS. 100 μL of the solution of PE-conjugated anti-human Fc antibody (Jackson Immuno Research) diluted at a ratio of 1:200 was added to each well, and the cells were incubated in dark on the ice for 30 min The cell suspension was centrifuged at 400 g for 5 min, and the supernatant was discarded. The cells were washed once with PBS. The cells were resuspended with 100 μL of PBS.

[3] = target: GITR protein overexpressed on Hela cells (Hela-GITR-NF-κB-Luc-Rep); experiment: cell-based or functional assay
[4] = target: T1, human GITR-His; experiment: ForteBio BLI, antibody on AHQ tip, human GITR-His 100 nM in solution
Method: as §1
In this experiment, binding kinetics and affinity for the antibody hcIgG-20 before humanization and the antibody HzhcIgG-20 after humanization were determined using the ForteBio method in the same way as in Example 3. ForteBio results are listed in Table 4. hcIgG-20 and HzhcIgG-20 retain the binding ability to GITRs, and the affinity is higher than the control antibody TRX518.

[5] = target: T2, human GITR overexpressed on CHO cells …; experiment: flow cytometry on CHO-GITR cells, PE anti-human Fc detection, MFI

B2: hcIgG-16 (antibody, V domains shown)
VH: QVQLQESGGGSVQAGGSLRLSCAASGYTYNKYSWGWFRQAPGKEREGVAGIDSDGSTSYADSVKGRFTISKDNTKNTLYLQMNSLKPEDTAMYYCAASDWVSAIQALGVLAVRPYEYWGQGTQVTVSS
notes: also called heavy-chain antibody of Nb-16
Kd [1]: 9.81 nM | koff [1]: 0.00114 s⁻¹ | kon [1]: 117000 M⁻¹ s⁻¹ | IC50 [2]: 34.1 nM

B3: hcIgG-20 (antibody, V domains shown)
VH: QVQLQESGGGSVQAGGSLRLSCASSGYSRTSRWMAWFRQAPGKEREGVAAIYTGGSSTLYANSMADRVTISQDNAKNTVYLRMNNLKPEDTAMYYCAADKLAGDFWLVDRWRAWGQGTQVTVSS
notes: also called heavy-chain antibody of Nb-20
EC50 for the activation (NF-κB luciferase reporter) [3]: 0.689 nM | Kd [4]: 4.35 nM | koff [4]: 0.000917 s⁻¹ | kon [4]: 211000 M⁻¹ s⁻¹ | EC50 (read off the curve) [5]: ~2 nM | Kd [1]: 1.85 nM | koff [1]: 0.000646 s⁻¹ | kon [1]: 349000 M⁻¹ s⁻¹ | IC50 [2]: 0.511 nM

B4: hcIgG-07 (antibody, V domains shown)
VH: QVQLQESGGGLVQAGGSLKLSCTVSGFAFGSSHMSWVRRAPGKGLEWVSTIHSGGGFGDYANSVQGRFTISRDVAKNTLYLQMNSLKPEDTAIYYCALATDWRKPPGQGTQVTVSS
notes: also called heavy-chain antibody of Nb-07
Kd [1]: 4.08 nM | koff [1]: 0.00099 s⁻¹ | kon [1]: 243000 M⁻¹ s⁻¹ | IC50 [2]: 1.44 nM

B5: hcIgG-10 (antibody, V domains shown)
VH: B4 VH with A14P, K19R, T23A, V24A
notes: also called heavy-chain antibody of Nb-10
Kd [1]: 3.22 nM | koff [1]: 0.000742 s⁻¹ | kon [1]: 231000 M⁻¹ s⁻¹ | IC50 [2]: 1.47 nM

Results, then the binder that gave them:

Kd [1]: 1.89 nM | koff [1]: 0.000487 s⁻¹ | kon [1]: 257000 M⁻¹ s⁻¹ | IC50 [2]: 4.89 nM
B1: hcIgG-09 (antibody, V domains shown)
VH: QVQLQESGGGLVQPGGSLRLSCGASGFTFSSTAMWWFRQAPGKGLEWVSSITSDVSGTYYADSVQGRFTISRDNGKNTVYLQMNSLRSEDTALYYCATSCGFSGGTWSCKYRGQGTQVTVSS
notes: also called heavy-chain antibody of Nb-09

Kd [1]: 5.3 nM | koff [1]: 0.00172 s⁻¹ | kon [1]: 324000 M⁻¹ s⁻¹ | IC50 [2]: 102 nM
B6: hcIgG-03 (antibody, V domains shown)
VH: QVQLQESGGGSVQAGGSLRLSCAASGYTYSGYCMGWFRQAPGKEHEGVASIVSGLGRPYYADSVKGRFTISQDNAKNTVYLQMNSLKPEDTAMYYCAAEWATKLCSEIPATEWDYWGQGTQVTVSS
notes: also called heavy-chain antibody of Nb-03

EC50 for the activation (NF-κB luciferase reporter) [3]: 0.663 nM | Kd [4]: 4 nM | koff [4]: 0.00128 s⁻¹ | kon [4]: 321000 M⁻¹ s⁻¹ | EC50 (read off the curve) [5]: ~2 nM
B7: HzhcIgG-20 (antibody, V domains shown)
VH: QVQLQESGGGLVQPGGSLRLSCAASGYSRTSRWMAWFRQAPGKGLEGVAAIYTGGSSTLYADSVKGRFTISRDNAKNSVYLQMNSLRAEDTAVYYCAADKLAGDFWLVDRWRAWGQGTLVTVSS
notes: Humanized heavy-chain antibody without light chain; also called humanized hcIgG-20; humanized HcIgG
